The supplement of paper PMC11865577

What was measured:
Assay in all cases: pull-down binding Z-score (relative to library population); higher = stronger binding
Details in all cases: RNA library: Library-2
[1] = test system: TO-3-N3 (biotin conjugate)
Summary of the method: (§1)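 Streptavidin beads with 100 pmol of biotin-conjugated small molecule were incubated for 60 min at 25 °C with 1 μg of heat-folded Cy5- or Cy3-end-labelled RNA library in phosphate/NaCl/KCl buffer. Bound RNA was eluted in hot SDS after three washes and hybridised to a DNA barcode microarray at 55.5 °C for 20 h. Each binding score is a library-referenced Z-score, computed after beads-only subtraction and a trimmed mean of barcoded replicate probes.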

TO-N3 (biotin conjugate) = test system: TO-N3 (biotin conjugate)
Summary of the method: as §1

[2] = test system: TO-N3-2 (biotin conjugate)
Summary of the method: as §1

[3] = test system: TO-3-N3-2 (biotin conjugate)
Summary of the method: as §1

Row | Sequence | pull-down binding Z-score [1] | pull-down binding Z-score (TO-N3 (biotin conjugate)) | pull-down binding Z-score [2] | pull-down binding Z-score [3]
1 | AACAUUAACCUCCACACGCAAGUUGUGGACAUGUCAAUGACAUAUGGACAACAGUUUGGUCCAACUUAUUUGGAUGGAGCUGAUGUU | -1 | -1.13 | -0.533 | -0.423
2 | GUUUGUGUAUCUACUAGUGGUAGAUGGGUACUUAAC | -0.677 | -0.726 | -1.05 | -0.279
3 | AAACUCAAACCCGUCCUUGAUUGGCUUGAAGAGAAGUUUAAGGAAGGUGUAGAGUUU | -0.653 | -0.588 | -0.346 | 0.119
4 | CUAAGUCACUAACUGAGAAUAAAUAUUCUCAAUUAGAUGAAGAG | -1.02 | -1.15 | -0.981 | -0.135
5 | UGACAUUACACCAUGUUCUUUUGGUGGUGUCA | -0.87 | -1.29 | -1.47 | -0.423
6 | GGCGAUUUUGUUAAAGCCACUUGCGAAUUUUGUGGCACUGAGAAUUUGACUAAAGAAGGUGCCACUACUUGUGGUUACUUACCCCAAAAUGCU | 0.452 | 0.66 | 0.59 | 0.278
7 | UGUUGCUUAUGAAAGUUUACGCCCUGACACACGUUAUGUGCUCAUGGAUGGCUCUAUUAUUCAAUUUCCUAACACCUACCUUGAAGGUUCUGUUAGAGUGGUAACA [SHAPE_invitro_SARS-CoV-2_Multi_27_ComplexLevel_1] | -0.56 | -0.452 | 0.0671 | 0.0467
8 | GGAGAAGAACCC [IAV_invivo_PB2_1_Motif_3+IAV_invivo_PB2_1_Motif_3] | -0.254 | -0.17 | 0.0437 | -0.0996
9 | UCGUGUUAAAAAUCUGAAUUCUUCUAGAGUUCCUGAUCUUCUGGUCUAAACGAACUAAAUAUUAUAUUAGUUUUUCUGUUUGGAACUUUAAUUUUAGCCAUGG | -0.635 | -0.609 | -0.59 | -0.138
10 | UGCGAGAAAUGCUUGCA [SHAPE_invitro_SARS-CoV-2_Motif_85] | 1.12 | 0.918 | -0.155 | -0.0133
11 | AGUCAUAACAAGAGAAGUGGGUUUUGUCGUGCCUGGUUUGCCUGGCACGAUAUUACGCACAACUAAUGGUGACU [DMSMaPseq_invitro_SARS-CoV-2_Motif_162] | -0.612 | -0.62 | -0.252 | -0.178
12 | GCAAAUUAAUGC | -0.689 | -1.04 | -1.25 | -0.864
13 | GGAAUAAGUAUGAUACUUACCUG [U1snRNP5ss-6] | 1.69 | 1.81 | 1.18 | 0.331
14 | GGUAAUUAUACAGUUUCCUGUUUACC [DMSMaPseq_invitro_SARS-CoV-2_Motif_504] | -0.536 | -1.05 | -0.867 | -0.713
15 | AAACUUGUGCCCUUUUGGUGAAGUUUUUAACGCCACCAGAUUUGCAUCUGUUU [SHAPE_invivo_SARS-CoV-2_Motif_425] | -1.12 | -1.3 | -0.751 | -0.449
16 | CCAUUCUUCGUAAGGGUGG [DMSMaPseq_invitro_SARS-CoV-2_Motif_28] | 0.0314 | -0.198 | -0.66 | -0.245
17 | CUUCUUGCAUGUGACUUAUGUCCCUGCACAAGAAAAG [SHAPE_invitro_SARS-CoV-2_Motif_449] | -0.329 | -0.309 | -0.177 | -0.257

Row | Sequence | pull-down binding Z-score [1] | pull-down binding Z-score (TO-N3 (biotin conjugate)) | pull-down binding Z-score [2] | pull-down binding Z-score [3]
18 | CAACGUAAGUUG [DMSMaPseq_invitro_SARS-CoV-2_Motif_215] | -0.34 | -0.732 | -1.6 | -0.477
19 | CUUCAUUAAAAGAAUUACUGCAAAAUGGUAUGAAUGGACGUACCAUAUUGGGUAGUGCUUUAUUAGAAG | -0.675 | -0.621 | -0.219 | -0.0236
20 | UGGUACUAUCUAUACAGAACUGGAACCA [SHAPE_invitro_SARS-CoV-2_Motif_233] | -0.352 | -0.445 | -0.456 | -0.345
21 | CACAAGGCAGAUGGGCUAUAUAAACGUUUUCGCUUUUCCGUUUACGAUAUAUAGUCUACUCUUGUG | -0.81 | -0.787 | -0.455 | -0.5
22 | CAUCAACCAUAUGUAGUUGAUG | -0.47 | -0.872 | -1.15 | -0.283
23 | CUGGCAGUAACCAG [SHAPE_invivo_SARS-CoV-2_Motif_538] | -0.215 | -0.233 | -0.733 | -0.422
24 | UAAAUAAGGGACACUUUGAUGGACAACAGGGUGAAGUACCAGUUUCUAUCAUUAAUAACACUGUUUACACAAAAGUUGAUGGUGUUGAUGUAGAAUUGUUUG | -0.266 | -0.00789 | -0.111 | 0.0932
25 | UGUGCUUGUGAAAUUGUCGGUGGACAAAUUGUCACCUGUGCA | -0.722 | -0.833 | -0.816 | -0.27
26 | AACGGGGCGGGCCGGGGGCGGGGUAA [G4_2A2_VEGF-Pu22] | 8.27 | 6.62 | 4.88 | 10.4
27 | GGCAUCAUAUGGGUUGCAACUGAGGGAGCCUUGAAUACACCAAAAGAUCACAUUGGCACCCGCAAUCCUGCUAACAAUGCU [DMSMaPseq_invitro_SARS-CoV-2_Motif_513] | -0.63 | -0.253 | 0.342 | -0.241
28 | CAGUACAAUUCUGUGAUGCCAUGCGAAAUGCUGGUAUUGUUGGUGUACUG | -0.432 | -0.499 | -0.171 | -0.441
29 | UAGAAUAGACGGUGACAUGGUACCACAUAUAUCACGUCAACGUCUUACUA [SHAPE_invivo_SARS-CoV-2_Motif_261] | -0.605 | -0.562 | -0.953 | -0.164
30 | CCCAAUCGUGGCGUGUCGGCCUGCUUCGGCAGGCACUGGCGCCG [Pepper530] | 0.37 | 0.516 | 1.13 | 0.0777
31 | CACAGAAAAGUACUGUG [SHAPE_invivo_SARS-CoV-2_Motif_52] | 1.15 | 0.891 | -0.279 | 0.427
32 | GGGGAUCUAUCAGAUUCUGGCGAUCUACUCAACUGUCGCCAGUUCACUGGUGCUUUUGGUCUCC [IAV_invivo_HA_4_Motif_19+IAV_invivo_HA_4_Motif_19] | 0.57 | 0.629 | 0.69 | 0.123
33 | GCUGAGUUGCCAUUCAGC [IAV_invivo_NA_6_Motif_18+IAV_invivo_NA_6_Motif_18] | -0.302 | -0.304 | -0.226 | -0.204
